Measurements reported in patent US8012695B2, “Methods and compositions relating to promoter regulation by MUC1 and KLF proteins” (Dana-Farber Cancer Institute, Inc., priority 2007, dated 2011).
Ends that are not written are not given here.

B1: MUC1-CD(1-72): GST fusion of the MUC1 cytoplasmic domain, amino acids 1-72 (SEQ ID NO:2) (protein)
chain: CQCRRKNYGQLDIFPARDTYHPMSEYPTYHTHGRYVPPSSTDRSPYEKVSAGNGGSSLSYTNPAVAAASANL
modifications: left off: a dimerising Fc or GST
B2: MUC1-CD: MUC1 cytoplasmic domain expressed in cells by transfection of the pCMV-MUC1-CD vector (protein, listed as Homo sapiens)
chain: B1 chain

Columns and labels:
[1] = target: T1, KLF4 (Homo sapiens, UniProt O43474); test: GST pull-down assay with 35S-labeled KLF4; format: binding; details: adsorbates to glutathione beads, 2 h at 4° C., autoradiography
T1 construct: host or cells: rabbit reticulocyte lysate, cell-free transcription/translation
T1 sequence (O43474 10-513 limits assumed): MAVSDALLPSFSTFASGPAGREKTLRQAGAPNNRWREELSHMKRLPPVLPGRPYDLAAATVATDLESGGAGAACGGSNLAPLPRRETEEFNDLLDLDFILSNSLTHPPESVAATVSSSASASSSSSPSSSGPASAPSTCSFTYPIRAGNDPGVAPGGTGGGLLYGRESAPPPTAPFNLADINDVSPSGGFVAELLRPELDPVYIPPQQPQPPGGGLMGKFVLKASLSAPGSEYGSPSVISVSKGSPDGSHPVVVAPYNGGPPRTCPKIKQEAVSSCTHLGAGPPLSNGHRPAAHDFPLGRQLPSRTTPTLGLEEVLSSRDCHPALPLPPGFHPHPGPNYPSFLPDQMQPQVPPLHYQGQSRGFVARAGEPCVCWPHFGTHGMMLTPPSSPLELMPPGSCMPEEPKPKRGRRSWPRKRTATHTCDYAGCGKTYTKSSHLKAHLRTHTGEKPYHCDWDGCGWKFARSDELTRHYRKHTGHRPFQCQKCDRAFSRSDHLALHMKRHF
Procedure: FIG. 3D is a pair of photographs of (a) an autoradiogram and (b) a Coomassie blue stained polyacrylamide gel. GST, GST-MUC1-CD(1-72), GST-MUC1-CD(47-72), or GST-MUC1-CD(1-46) were bound to glutathione-conjugated agarose beads and incubated with [^35S]-labeled KLF4 protein. The beads were washed to remove unbound KLF4 protein. The remaining adsorbates were analyzed by SDS-PAGE and autoradiography (top photograph). Input KLF4 protein is shown in the first lane of the top photograph. Input of the GST and GST-MUC1-CD fusion proteins was assessed by Coomassie blue staining. The molecular weights of the proteins (expressed in kilodaltons (kDa)) are indicated at the left of each of the photographs.
GST pull-down assays. GST and GST fusion proteins were purified by binding to glutathione-agarose beads (Sigma). ^35S-labeled KLF4, prepared in rabbit reticulocyte lysate transcription/translation (TNT) reactions (Promega Corporation), was incubated with GST or the GST fusion proteins for 2 h at 4° C. After washing, the adsorbed proteins were resolved by SDS-PAGE and analyzed by autoradiography.
To determine if MUC1-C occupies the PE21 region with KLF4, Re-ChIP assays were performed using anti-MUC1-C and anti-KLF4 antibodies. […] Moreover, DNA damage had little if any effect on this interaction (FIG. 7B). […]

[2] = tested on: p53 promoter; test: p53 promoter-Luc reporter assay in ZR-75-1 cells; format: cell-based, human
Procedure: FIG. 4A is a bar graph (left) and a series of photographs of western blots (right) depicting the suppression of p53 gene transcription by MUC1. Bar graph, Left: ZR-75-1/MUC1siRNA cells were transfected with the −2400-p53-Luc reporter or the −320-p53-Luc reporter construct. The X-axis indicates the amount of MUC1-CD DNA (and a control LacZ expression plasmid) in μg (“μg MUC1-CD) also transfected into each cell. the indicated amounts of MUC1-CD. At 40 h after transfection, lysates were prepared from the transfected cells and assayed for luciferase activity. The Y-axis represents the relative luciferase activity expressed as fold activation (mean±SD of 3 separate experiments) compared to that obtained with empty vector-transfected cells (assigned a value of 1). Western blots, right: ZR-75-1/MUC1siRNA cells were transfected with the indicated amounts (in μg) of pCMV or pCMV-MUC1-CD vectors. At 24 hours after transfection, lysates from the indicated ZR-75-1/MUC1siRNA cells were immunoblotted (“IB”) with antibodies specific for p53, MUC1-C, or β-actin (as indicated below each photograph). […]
FIG. 4B is a pair of bar graphs. […] The Y-axis represents the relative luciferase activity expressed as the fold activation (mean±SD of 3 separate experiments) compared to that obtained with empty vector-transfected cells (assigned a value of 1). […]

[3] = tested on: ZR-75-1 breast cancer cells; test: Immunoblot analysis of p53 in ZR-75-1 cells; format: cell-based, human; details: ZR-75-1/MUC1siRNA cells transfected with pCMV-MUC1-CD, 24 hours
Procedure: Cell culture. […] Human ZR-75-1 breast cancer cells and those stably infected with a control siRNA (ZR-75-1/CsiRNA) or one expressing a MUC1siRNA (ZR-75-1/MUC1siRNA) (Wei et al. (2006) Mol. Cell. 21: 295-305) were cultured in RPMI 1640 medium supplemented with 10% HI-FBS, 100 μg/ml streptomycin, 100 units/ml penicillin, and 2 mM L-glutamine.
Immunoblotting. […] Immunoblot analysis was performed with anti-p53 (Ab-2, Ab-6; Oncogene Research Products), anti-MUC1-C (Ab-5; Neomarkers, Freemont, Calif.), anti-KLF4 (H-180; Santa Cruz Biotechnology), anti-β-actin (Sigma), anti-IκBα (Santa Cruz Biotechnology), or anti-PCNA (F-2; Santa Cruz Biotechnology) antibodies. Whole cell lysates were also, prior to analysis by immunoblotting, first subjected to immunoprecipitation with an anti-KLF4 antibody. Immunocomplexes were detected with enhanced chemiluminescence (ECL; PerkinElmer Life Sciences).

[4] = tested on: p53 promoter; test: p53 promoter-Luc reporter assay in MCF-7 cells; format: cell-based, human; details: −2400-p53-Luc, 0.5 μg MUC1-CD, increasing amounts of KLF4
Procedure: FIG. 4B is a pair of bar graphs. MCF-7 (left bar graph) or ZR-75-1 (right bar graph) cells were transfected with the −2400-p53-Luc reporter, the indicated amounts (0, 0.5, or 1 μg) of KLF4, 0.5 μg MUC1-CD and an internal control LacZ expression plasmid (pCMV-LacZ). At 40 hours after transfection, the cells were assayed for luciferase activity (as described above). The Y-axis represents the relative luciferase activity expressed as the fold activation (mean±SD of 3 separate experiments) compared to that obtained with empty vector-transfected cells (assigned a value of 1).
Transfection and reporter assays. Transfections were performed in 60 mm dishes using Fugene-6 (Roche Applied Science) or, for the luciferase assays, in 24 well plates using the calcium phosphate method (Invitrogen). Cells were transfected with the −2400-p53-Luc reporter, −2400-PE21-MUT-Luc reporter, −320-p53-Luc reporter, −320-PE21-MUT-Luc reporter (Rowland et al. (2005) Nat. Cell Biol. 7: 1074-1082) and an internal control LacZ expression plasmid (pCMV-LacZ) (Wei et al. (2001) J. Biol. Chem. 276: 16107-16112). Luciferase assays were performed with the Luciferase Assay System (Promega Corporation, Madison, Wis.) at 40 hours after transfection. Luciferase activity was normalized to that obtained for LacZ and presented as relative luciferase activity. […]

Row | Molecule | binding of [35S]-labeled KLF4 to GST fusion protein [1] | p53 gene transcription (luciferase activity) ([2]; ZR-75-1/MUC1siRNA cells, −2400-p53-Luc or −320-p53-Luc, 40 h after transfection) | effect on KLF4-mediated suppression of p53 transcription (luciferase) ([2]; ZR-75-1 cells, −2400-p53-Luc, 0.5 μg MUC1-CD, increasing amounts of KLF4) | p53 levels (immunoblot) [3] | effect on KLF4-mediated suppression of p53 transcription (luciferase) [4]
1 | MUC1-CD(47-72): GST fusion of MUC1-CD deletion fragment, amino acids 47-72 (EKVSAGNGGSSLSYTNPAVAAASANL; also: GST fusion (side not given here); listed as Homo sapiens) | not | – | – | – | –
2 | B1 | binds | – | – | – | –
3 | B2 | – | suppresses p53 gene transcription | potentiates KLF4-mediated suppression of p53 transcription | downregulates p53 levels | potentiates KLF4-mediated suppression of p53 transcription
